From PMC6911170

Molecular target: T1, GST-Zc3h10 full length (UniProt Q8R205 1-435)
T1 sequence: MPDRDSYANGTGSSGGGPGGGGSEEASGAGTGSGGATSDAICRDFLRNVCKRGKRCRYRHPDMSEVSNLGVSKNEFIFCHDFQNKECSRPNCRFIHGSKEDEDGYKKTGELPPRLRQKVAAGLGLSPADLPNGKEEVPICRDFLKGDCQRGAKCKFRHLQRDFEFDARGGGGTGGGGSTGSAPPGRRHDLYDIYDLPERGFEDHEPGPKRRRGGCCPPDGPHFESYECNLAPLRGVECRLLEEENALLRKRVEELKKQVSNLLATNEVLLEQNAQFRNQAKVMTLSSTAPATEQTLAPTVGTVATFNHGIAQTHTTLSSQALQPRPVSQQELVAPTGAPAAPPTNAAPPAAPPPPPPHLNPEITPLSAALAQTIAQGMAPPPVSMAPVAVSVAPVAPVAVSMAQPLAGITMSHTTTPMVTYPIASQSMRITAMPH
Assay: EMSA

B1: -4.6 kb UCP1 probe (dsDNA)
DNA 1: TTTACCAAGTCCTTTCCACCGTGCAGGACGCACCATTCGGCAGCTTCCAGTTGTCTGGGAACTTCCAGTTGAAGGGATGA
DNA 2: TCATCCCTTCAACTGGAAGTTCCCAGACAACTGGAAGCTGCCGAATGGTGCGTCCTGCACGGTGGAAAGGACTTGGTAAA
B1: binds.
